Source: the DeepSol protein solubility set

Assay: soluble on expression in E. coli; label from the status in PepcDB or PDB records
In the case of “MRIKLIIVEGKTDESFFKVLLEKLYGFREAKKLTPEFPIGKWGFRIGEHPLVLEKDNIALVIIHAEGKQRIPKVLKSVLDSVKLGLLNVEEVYVVRDVDEGNDVFEWVLSFLREREVRVDNGAIVTEGVKIYPYGMGNLTLNEPFVKEKKELELSLAYLAKLDGILEKYRGSMRALSQDKGDKLTPKDVMHILSIANDYTGDCLSGLYEKYIGIMIHRNRELLIRFLSEVNLLPLLERMVG”, the “soluble on expression in E. coli” value is reported as “soluble”.
In the case of “MGSDKIHHHHHHMAVWNANEMPERDRFPYWREVLCEAYIALNPILEGEQRFKGEVKANLLDCINVTTISSSRQKIHRRRLDISRMPHEVYFLNLQVKGQCRMMQGSREALLEPGDFSLVDSTEPYLNDYCSDDWTQYSFRIPRAMLKPLLKQADKQTAIRFTSAHPIASVAIDYLKSVAQNAEHIGTASTPIANHIVDLVAMAAGVSTTEEDRARGTLRSQLSRSVIQFIGAHAADPTLTPAKAAQHFKISVRYVHRLLEESGETFSRLLLKRRLERCADDLRAEAAISISEIAFRWGFNDLSHFSKTFRHHFGVAPRDYRGQ”, the “soluble on expression in E. coli” value is reported as “not soluble”.
In the case of “MAHHHHHHMFTLLCCADLAGNKVNLEIALDTFPATLRGLESDIARIFNREVEKSGAVEHNANVAEPFQVMSVFVYDDVLLRWTKLESLTQLHEYDQLYVFQPQTQWHVDVQKELPPPRPPARSRASSITGASGTLASLQVNGCASSPWPRSGISTRISAAGDIDTSHSPVPSRSPARAQLEEHRREEERLAHRLSTLRRVREHLEREAQREEEEERRRRSLETYRLLKCKEEEIWSQRDALARAEEEFRQFLAEKQRLMGQSPSP”, the “soluble on expression in E. coli” value is reported as “not soluble”.
In the case of “MGTYKKEKSRIGREGANEKKPGNLRVKGENFYRNAKDVARVNMYRGGKAKYNAAGELVRAAEFQSSEVPKARIQPDRRWFNNTRVIAQPTLTQFREAMGQKLNDPYQVLLRRNKLPMSLLQENTEIPKVRVLESEPFENTFGPKSQRKRPKISFDSVAELAKESDEKQNAYEEKIEERILANPDESDDVMLAARDAIFSKGQSKRIWNELYKVIDSSDVLIQVLDARDPVGTRCGTVERYLRNEASHKHMILVLNKVDLVPTSVAAAWVKILAKEYPTIAFHASINNSFGKGSLIQILRQFASLHSDKKQISVGLIGFPNAGKSSIINTLRKKKVCNVAPIPGETKVWQYVALMKRIFLIDCPGIVPPSSNDSDAELLLKGVVRVENVSNPEAYIPTVLSRCKVKHLERTYEISGWNDSTEFLAKLAKKGGRLLKGGEPDEASVAKMVLNDFMRGKIPWFIGPKGLSSSNDEINSSQKVATQQTEGSDQDGEEAEEEWHGISDDGKADESESTKPVAEGSASESTDESAVDDNKNRS”, the “soluble on expression in E. coli” value is reported as “not soluble”.
With “MASRLNEDPEGSRITYVKGDLFACPKTDSLAHCISEDCRMGAGIAVLFKKRFGGVQELLSQQKKSGEVAVLKRDGRYIYYLITKKRASHKPTYENLQKSLEAMKSHCLKNGVTDLSMPRIGCGLDRLQWENVSAILEEVFESTDIKITVYTL” the “soluble on expression in E. coli” value was “not soluble”.
With “MRRIITMTVNNRPGVLNRITGLFTKRHYNIESITVGHTEIEGISRMTFVVNVDDERTAEQIIKQLNKQIDVLKVNDITDQAIVARELALIKVAAPPAVRQEIYTLIEPFRASIVDVSKDSLVIQVTGEPEKVEALIELLRPYGIKEVARTGTTAFTRGAQKATTNQKTAFII” the “soluble on expression in E. coli” value was “not soluble”.
With “MGSDKIHHHHHHMKKIGLTTTVPIEVLLSAGYTPIDLNNIFVGSKDYSKYIDIAEKDGFPKSLCAWIKGIYGACISNDIKEIVGVHDGDCSNTKALTEVLSMKGIKVYPFSYPSSHNINDVKDELDAFMNLFHVTLNQVEKIRTRLNKLRELGIEIDKLTFEDNKATALENHIWQISFSDLNGDIDAFNSDLIKTIADIKKREASSSKLRLGYIGVPPMTPDIYEFVTNFDAKIVYNEVQREFAFPRSSKAKDIYEQYFDYTYPYDVYFRIDEISRQIEERHIDGIIHYTQAFCYRAVQDIVIKEKLRVPVINIEGDRLNHLDARTKLRLEAFLDMLLDSKEGIF” the “soluble on expression in E. coli” value was “not soluble”.
For “MAHHHHHHMVATITFKLRSSNHVGIIEVPHRVISCREIKEAIAEKLSGSPDEIDIFVSGSSDYLHPNDELPAYTVVEVVRHVGTGRPPPKREREPVGPSNLSSAMSHAAVRAGNKNGDTATPLTEEERLAQLSEAVAVETGIDEVGAWRMRQMRNRSAAMGGGGREVTFRPPPPGYICHNCGKRGHLIQHCPAAKGVRGVKLLSLPTGIPETMLVECTMDDPAAKFVTRDGRLVKRKLDNASFVGIVTTSNADGVKPDFPSEGGNNRNDSPNSEKLETPDAGGDAAAKPQFLCAWDSVIVKNAMKAPCCGALFCETCLNERVEEAISRADASEIPLLCPGCEEPLDVPDVVEATEERKLVEALRSGKRARD”, the “soluble on expression in E. coli” value was “not soluble”.
